Molecular target: T1, insulin receptor isoform A (IR-A) from lysates of R-/IR-A cells (UniProt P06213-2 28-1370)
T1 construct: Whole receptor in the lysate of R- fibroblasts stably transfected with IR-A cDNA
Experiment: immunoprecipitation from R-/IR-A cell lysate, SDS-PAGE, immunoblot with anti-IR beta-subunit

T1 sequence (P06213 other isoform, or with tags, fused parts or gaps limits assumed): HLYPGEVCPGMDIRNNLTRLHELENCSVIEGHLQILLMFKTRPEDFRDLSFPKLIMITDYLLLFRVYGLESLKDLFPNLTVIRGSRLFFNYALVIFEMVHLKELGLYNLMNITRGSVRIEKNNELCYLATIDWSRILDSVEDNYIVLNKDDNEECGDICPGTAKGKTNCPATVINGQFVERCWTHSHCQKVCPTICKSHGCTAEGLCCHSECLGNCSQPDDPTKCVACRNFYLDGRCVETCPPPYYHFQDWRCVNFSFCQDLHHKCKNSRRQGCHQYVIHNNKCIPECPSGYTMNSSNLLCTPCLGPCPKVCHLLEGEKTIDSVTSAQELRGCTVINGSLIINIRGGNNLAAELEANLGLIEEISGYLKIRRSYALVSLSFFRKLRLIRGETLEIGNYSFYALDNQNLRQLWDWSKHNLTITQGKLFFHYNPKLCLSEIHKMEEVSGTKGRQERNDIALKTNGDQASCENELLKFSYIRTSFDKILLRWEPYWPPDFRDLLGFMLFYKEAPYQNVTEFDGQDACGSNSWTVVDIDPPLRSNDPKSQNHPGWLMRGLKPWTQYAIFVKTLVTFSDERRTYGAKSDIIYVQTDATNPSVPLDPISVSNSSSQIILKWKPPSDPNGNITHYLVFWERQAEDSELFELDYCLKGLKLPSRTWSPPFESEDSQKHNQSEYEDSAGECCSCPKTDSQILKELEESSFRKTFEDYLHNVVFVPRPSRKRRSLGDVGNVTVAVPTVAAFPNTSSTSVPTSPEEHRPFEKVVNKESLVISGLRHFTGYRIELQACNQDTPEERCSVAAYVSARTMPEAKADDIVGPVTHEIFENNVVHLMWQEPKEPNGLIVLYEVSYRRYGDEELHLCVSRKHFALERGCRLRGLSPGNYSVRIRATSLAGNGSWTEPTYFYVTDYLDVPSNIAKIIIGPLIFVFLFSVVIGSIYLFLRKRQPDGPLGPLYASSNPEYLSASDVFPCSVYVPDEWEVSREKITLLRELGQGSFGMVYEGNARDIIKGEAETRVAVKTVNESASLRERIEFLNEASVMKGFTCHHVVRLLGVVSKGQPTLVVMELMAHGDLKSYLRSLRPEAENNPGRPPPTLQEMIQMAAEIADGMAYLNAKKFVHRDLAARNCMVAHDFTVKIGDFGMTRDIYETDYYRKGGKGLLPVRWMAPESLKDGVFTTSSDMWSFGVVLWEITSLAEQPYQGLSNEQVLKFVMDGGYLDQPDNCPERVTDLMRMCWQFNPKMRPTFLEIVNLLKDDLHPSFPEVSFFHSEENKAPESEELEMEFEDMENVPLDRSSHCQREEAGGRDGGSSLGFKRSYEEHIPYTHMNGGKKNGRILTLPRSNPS

binding result: no binding
B1: humanized antibody h7C10 (humanized form 1 of 7C10: humanized 7C10 VH 1 with humanized 7C10 VL 1) (antibody, V domains shown)
VH: QVQLQESGPGLVKPSETLSLTCTVSGYSITGGYLWNWIRQPPGKGLEWMGYISYDGTNNYKPSLKDRITISRDTSKNQFSLKLSSVTAADTAVYYCARYGRVFFDYWGQGTLVTVSS
VL: DVVMTQSPLSLPVTPGEPASISCRSSQSIVHSNGNTYLQWYLQKPGQSPQLLIYKVSNRLYGVPDRFSGSGSGTDFTLKISRVEAEDVGVYYCFQGSHVPWTFGQGTKVEIK
notes: Human IgG1/kappa; also called 7H2HM; A2CHM

— patent US20050249730A1 (PIERRE FABRE MEDICAMENT, published 2005)
